Columns and labels:
[1] = target: T1, human serum albumin (human, UniProt P02768 25-609); test: SPR, Biacore T100; sample captured by anti-human CH1 antibody, HSA as analyte, 1:1 fit
T1 construct: Bought protein; also called HSA
Procedure: (§1) Covalent immobilisation of the capture antibody was achieved by standard amine coupling chemistry.
(§2) After each cycle, the capture surface was regenerated with 2×1 min injections of 40 mM HCl followed by 30 s of 5 mM NaOH. The flow rates used were 10 μl/min for capture, 30 μl/min for association and dissociation phases, and 10 μl/min for regeneration.
(§3) Kinetic parameters were determined by simultaneous global-fitting of the resulting sensorgrams to a standard 1:1 binding model using Biacore T100 Evaluation Software v2.0.1.

[2] = target: T2, IL-6 (UniProt P05231 30-212, limits assumed); test: SPR, Biacore T100; sample captured by anti-human CH1 antibody, IL-6 as analyte, 1:1 fit
Procedure: as §1
(§4) A blank flow-cell was used for reference subtraction and buffer-blank injections were included to subtract instrument noise and drift.
as §3

[3] = target: T2, IL-6; test: SPR, Biacore T100; sample captured by anti-human CH1 antibody, IL-6 as analyte
Procedure: as §1, §2, §4

[4] = target: T1, human serum albumin; test: SPR, Biacore T100; sample captured by anti-human CH1 antibody, HSA as analyte
Procedure: as §1, §2, §4

Kd [1]	koff [1]	kon [1]	Kd [2]	koff [2]	kon [2]	Stoichiometry [3]	Stoichiometry [4]	Binder
11.6 nM	0.000389 s⁻¹	33700 M⁻¹ s⁻¹	0.78 nM	0.000747 s⁻¹	959000 M⁻¹ s⁻¹	0.47	0.4	A26Fab 645Fv 2G4S 1189Fv (other, Trispecific Fab-Fv-Fv (OX40, HSA, IL-6); second linker 2xG4S; HEK293 supernatant; also called A26Fab-645Fv-1189Fv; FabFvFv) heavy: EVQLVESGGGLVQPGGSLRLSCAASGFTFTNYGIHWIRQAPGKGLEWVASISPSGGLTYYRDSVKGRFTISRDDAKNSPYLQMNSLRAEDTAVYYCATGGEGIFDYWGQGTLVTVSSASTKGPSVFPLAPSSKSTSGGTAALGCLVKDYFPEPVTVSWNSGALTSGVHTFPAVLQSSGLYSLSSVVTVPSSSLGTQTYICNVNHKPSNTKVDKKVEPKSCSGGGGSGGGGSGGGGSEVQLLESGGGLVQPGGSLRLSCAVSGIDLSNYAINWVRQAPGKCLEWIGIIWASGTTFYATWAKGRFTISRDSTTVYLQMNSLRAEDTAVYYCARTVPGYSTAPYFDLWGQGTLVTVSSGGGGSGGGGSEVQLVESGGGLVQPGGSLRLSCAASGFTFNDYDMAWVRQAPGKCLEWVASITPSGGGTYYRDSVKGRFTISRDNAKNSLYLQMNSLRAEDTAVYYCARHGYTLDYFEYWGQGTMVTVSS light: DIQMTQSPSSLSASVGDRVTITCRATQSIYNALAWYQQKPGKAPKLLIYNANTLHTGVPSRFSASGSGTDSTLTISSLQPEDFATYYCQQYYDYPLTFGGGTKVEIKRTVAAPSVFIFPPSDEQLKSGTASVVCLLNNFYPREAKVQWKVDNALQSGNSQESVTEQDSKDSTYSLSSTLTLSKADYEKHKVYACEVTHQGLSSPVTKSFNRGECSGGGGSGGGGSGGGGSDIVMTQSPSSVSASVGDRVTITCQSSPSVWSNFLSWYQQKPGKAPKLLIYEASKLTSGVPSRFKGSGSGTDFTLTISSLQPEDFATYYCGGGYSSISDTTFGCGTKVEIKGGGGSGGGGSDIQMTQSPSSLSASVGDRVTITCLASEGISNDLAWYQQKPGKAPKLLIYDATRLQDGVPSRFSGSGSGTDFTLTISSLQPEDFATYYCQQSYKYPWTFGCGTKLEIK
11.6 nM	0.000392 s⁻¹	33800 M⁻¹ s⁻¹	0.84 nM	0.000737 s⁻¹	874000 M⁻¹ s⁻¹	0.68	0.39	A26Fab 645Fv 3G4S 1189Fv (other, Trispecific Fab-Fv-Fv (OX40, HSA, IL-6); second linker 3xG4S; HEK293 supernatant; also called A26Fab-645Fv-1189Fv; FabFvFv) heavy: EVQLVESGGGLVQPGGSLRLSCAASGFTFTNYGIHWIRQAPGKGLEWVASISPSGGLTYYRDSVKGRFTISRDDAKNSPYLQMNSLRAEDTAVYYCATGGEGIFDYWGQGTLVTVSSASTKGPSVFPLAPSSKSTSGGTAALGCLVKDYFPEPVTVSWNSGALTSGVHTFPAVLQSSGLYSLSSVVTVPSSSLGTQTYICNVNHKPSNTKVDKKVEPKSCSGGGGSGGGGSGGGGSEVQLLESGGGLVQPGGSLRLSCAVSGIDLSNYAINWVRQAPGKCLEWIGIIWASGTTFYATWAKGRFTISRDSTTVYLQMNSLRAEDTAVYYCARTVPGYSTAPYFDLWGQGTLVTVSSGGGGSGGGGSGGGGSEVQLVESGGGLVQPGGSLRLSCAASGFTFNDYDMAWVRQAPGKCLEWVASITPSGGGTYYRDSVKGRFTISRDNAKNSLYLQMNSLRAEDTAVYYCARHGYTLDYFEYWGQGTMVTVSS light: DIQMTQSPSSLSASVGDRVTITCRATQSIYNALAWYQQKPGKAPKLLIYNANTLHTGVPSRFSASGSGTDSTLTISSLQPEDFATYYCQQYYDYPLTFGGGTKVEIKRTVAAPSVFIFPPSDEQLKSGTASVVCLLNNFYPREAKVQWKVDNALQSGNSQESVTEQDSKDSTYSLSSTLTLSKADYEKHKVYACEVTHQGLSSPVTKSFNRGECSGGGGSGGGGSGGGGSDIVMTQSPSSVSASVGDRVTITCQSSPSVWSNFLSWYQQKPGKAPKLLIYEASKLTSGVPSRFKGSGSGTDFTLTISSLQPEDFATYYCGGGYSSISDTTFGCGTKVEIKGGGGSGGGGSGGGGSDIQMTQSPSSLSASVGDRVTITCLASEGISNDLAWYQQKPGKAPKLLIYDATRLQDGVPSRFSGSGSGTDFTLTISSLQPEDFATYYCQQSYKYPWTFGCGTKLEIK
